Experimental data published in PMC3964825.

B1: HOTAIR 201-300 (structured_RNA)
RNA: GCAGUGGAAUGGAACGGAUUUAGAAGCCUGCAGUAGGGGAGUGGGGAGUGGAGAGAGGGAGCCCAGAGUUACAGACGGCGGCGAGAGGAAGGAGGGGCGGAU
B2: HOTAIR 101-300 (structured_RNA)
RNA: GACCAACACCCCUGCUCCUGGCGGCUCCCACCCGGGGCUUAGACCCUCAGGUCCCUAAUAUCCCGGAGGUGCUCUCAAUCAGAAAGGUCCUGCUCCGCUUCGCAGUGGAAUGGAACGGAUUUAGAAGCCUGCAGUAGGGGAGUGGGGAGUGGAGAGAGGGAGCCCAGAGUUACAGACGGCGGCGAGAGGAAGGAGGGGCGGAU
B3: HOTAIR 212-300 (minHOTAIR) (structured_RNA)
RNA: GGAACGGAUUUAGAAGCCUGCAGUAGGGGAGUGGGGAGUGGAGAGAGGGAGCCCAGAGUUACAGACGGCGGCGAGAGGAAGGAGGGGCGGAU
B4: HOTAIR 1-100 (structured_RNA)
RNA: GACUCGCCUGUGCUCUGGAGCUUGAUCCGAAAGCUUCCACAGUGAGGACUGCUCCGUGGGGGUAAGAGAGCACCAGGCACUGAGGCCUGGGAGUUCCACA

Key:
Test in all cases: EMSA
EZH2-EED = EZH2-EED (UniProt Q15910;O75530 1-746;1-441)
LSD1 = LSD1 (UniProt O60341 1-852)
PRC2 3m (EZH2-EED-SUZ12) = PRC2 3m (EZH2-EED-SUZ12) (UniProt Q15910;O75530;Q15022 1-746;1-441;1-739)
Chain of PRC2 3m (EZH2-EED-SUZ12) (Q15910 whole entry, chain 1 of 3): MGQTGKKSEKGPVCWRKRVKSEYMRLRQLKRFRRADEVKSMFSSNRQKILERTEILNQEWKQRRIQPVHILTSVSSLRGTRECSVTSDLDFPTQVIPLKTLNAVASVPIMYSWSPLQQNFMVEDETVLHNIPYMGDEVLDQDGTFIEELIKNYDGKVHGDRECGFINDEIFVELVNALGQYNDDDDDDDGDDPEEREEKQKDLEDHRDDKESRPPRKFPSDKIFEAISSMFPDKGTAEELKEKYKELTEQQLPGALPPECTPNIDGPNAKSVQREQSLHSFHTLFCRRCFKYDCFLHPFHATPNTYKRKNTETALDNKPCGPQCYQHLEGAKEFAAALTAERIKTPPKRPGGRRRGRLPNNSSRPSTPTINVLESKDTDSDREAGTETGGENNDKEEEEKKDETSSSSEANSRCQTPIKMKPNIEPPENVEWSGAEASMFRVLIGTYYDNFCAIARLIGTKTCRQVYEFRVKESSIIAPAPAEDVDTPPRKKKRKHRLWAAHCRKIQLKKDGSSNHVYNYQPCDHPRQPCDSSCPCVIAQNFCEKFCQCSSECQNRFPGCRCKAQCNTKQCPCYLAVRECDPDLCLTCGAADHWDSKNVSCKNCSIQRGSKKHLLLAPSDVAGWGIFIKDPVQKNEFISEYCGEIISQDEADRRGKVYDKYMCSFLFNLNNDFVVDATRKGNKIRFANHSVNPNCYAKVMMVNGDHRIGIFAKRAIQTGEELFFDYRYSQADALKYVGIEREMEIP
Chain of PRC2 3m (EZH2-EED-SUZ12) (O75530 whole entry, chain 2 of 3): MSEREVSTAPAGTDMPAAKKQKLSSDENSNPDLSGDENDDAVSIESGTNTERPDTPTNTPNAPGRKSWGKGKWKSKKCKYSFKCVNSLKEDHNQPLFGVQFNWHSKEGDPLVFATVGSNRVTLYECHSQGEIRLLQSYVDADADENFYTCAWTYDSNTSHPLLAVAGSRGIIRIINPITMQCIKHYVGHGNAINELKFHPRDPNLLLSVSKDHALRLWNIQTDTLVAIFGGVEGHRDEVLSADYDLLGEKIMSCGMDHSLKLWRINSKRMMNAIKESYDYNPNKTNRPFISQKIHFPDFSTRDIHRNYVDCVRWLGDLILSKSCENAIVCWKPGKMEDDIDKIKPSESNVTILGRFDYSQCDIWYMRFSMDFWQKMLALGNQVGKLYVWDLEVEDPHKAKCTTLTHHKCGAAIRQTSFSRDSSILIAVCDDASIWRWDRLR
Chain of PRC2 3m (EZH2-EED-SUZ12) (Q15022 whole entry, chain 3 of 3): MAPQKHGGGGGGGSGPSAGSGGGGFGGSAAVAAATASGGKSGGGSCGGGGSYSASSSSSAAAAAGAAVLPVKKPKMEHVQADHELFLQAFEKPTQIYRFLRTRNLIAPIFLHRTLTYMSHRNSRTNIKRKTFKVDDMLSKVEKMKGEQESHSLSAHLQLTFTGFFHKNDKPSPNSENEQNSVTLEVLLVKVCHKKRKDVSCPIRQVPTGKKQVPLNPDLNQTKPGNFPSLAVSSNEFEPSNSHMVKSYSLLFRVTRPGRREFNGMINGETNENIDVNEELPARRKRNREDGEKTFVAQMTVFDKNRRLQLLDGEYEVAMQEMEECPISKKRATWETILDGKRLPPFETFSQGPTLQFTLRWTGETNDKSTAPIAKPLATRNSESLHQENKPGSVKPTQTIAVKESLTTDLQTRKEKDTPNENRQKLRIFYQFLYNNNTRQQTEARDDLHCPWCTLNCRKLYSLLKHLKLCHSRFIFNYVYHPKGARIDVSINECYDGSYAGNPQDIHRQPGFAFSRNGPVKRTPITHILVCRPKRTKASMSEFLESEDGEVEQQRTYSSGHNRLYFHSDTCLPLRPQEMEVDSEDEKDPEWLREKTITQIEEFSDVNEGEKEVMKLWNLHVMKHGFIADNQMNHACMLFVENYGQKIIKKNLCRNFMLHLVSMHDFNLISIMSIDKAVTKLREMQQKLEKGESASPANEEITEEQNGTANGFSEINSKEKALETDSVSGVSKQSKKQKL

Chain of EZH2-EED (Q15910 whole entry, chain 1 of 2): as the sequence (Q15910 whole entry, chain 1 of 3) above
Chain of EZH2-EED (O75530 whole entry, chain 2 of 2): as the sequence (O75530 whole entry, chain 2 of 3) above

Binder | Kd (EZH2-EED) | binding result (LSD1) | Kd (PRC2 3m (EZH2-EED-SUZ12)) | binding result (EZH2-EED)
B1 | 157 ± 12 nM |  |  | 
B2 | 119 ± 18 nM |  |  | 
B3 | 135 ± 20 nM | no binding | 111 ± 10 nM | 
B4 |  |  |  | no binding
